Assay results from patent US12559545 (VANDERBILT UNIVERSITY, dated 2026).

B1: HENV-32 (antibody, V domains shown)
VH: QVQLVQSGAEVKKPGSSVKVSCKVSGGIFNRETINWVRQAPGQGLEWMGRITPIVDVPNYPRKFRGRVTITADKSTSTVYMELSGLRFEDTAIYFCARFRGHNYFDPWGQGTLVTVSS
VL: SYVLTQPPSVSVAPGQTARITCGGNNIGGKSVHWYQQKPGQAPVLVVYDDRDRPSGIPERFSGSNSGDTASLTISRVDAGDEADYFCQVWDNASDEAVFGGGTKLTVL
B2: HENV-32 Fab (Fab, V domains shown)
VH: QVQLVQSGAEVKKPGSSVKVSCKVSGGIFNRETINWVRQAPGQGLEWMGRITPIVDVPNYPRKFRGRVTITADKSTSTVYMELSGLRFEDTAIYFCARFRGHNYFDPWGQGTLVTVSS
VL: SYVLTQPPSVSVAPGQTARITCGGNNIGGKSVHWYQQKPGQAPVLVVYDDRDRPSGIPERFSGSNSGDTASLTISRVDAGDEADYFCQVWDNASDEAVFGGGTKLTVL

Columns and labels:
[1] = target: T1, HeV RBP on live Hendra virus (Hendra virus, UniProt O89343 182-603); test: cell-based or functional assay
T1 sequence: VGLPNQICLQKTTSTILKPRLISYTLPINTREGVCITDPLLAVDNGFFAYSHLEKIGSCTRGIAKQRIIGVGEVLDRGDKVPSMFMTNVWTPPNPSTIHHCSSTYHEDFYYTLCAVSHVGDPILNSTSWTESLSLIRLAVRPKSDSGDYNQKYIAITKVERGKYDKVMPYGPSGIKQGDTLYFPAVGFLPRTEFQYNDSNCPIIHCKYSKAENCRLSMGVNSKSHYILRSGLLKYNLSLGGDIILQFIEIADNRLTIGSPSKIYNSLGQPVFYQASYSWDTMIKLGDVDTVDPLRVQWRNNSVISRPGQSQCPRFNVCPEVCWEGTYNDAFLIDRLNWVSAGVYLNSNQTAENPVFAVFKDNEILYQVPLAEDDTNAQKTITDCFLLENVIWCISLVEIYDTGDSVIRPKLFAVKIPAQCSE

[2] = target: NiVB RBP on live Nipah virus Bangladesh (Nipah virus, strain Bangladesh, UniProt Q9IH62 182-602); test: cell-based or functional assay
[3] = target: T2, full-length HeV-RBP expressed on the surface of transfected cells (Hendra virus, UniProt O89343 182-603)
T2 sequence: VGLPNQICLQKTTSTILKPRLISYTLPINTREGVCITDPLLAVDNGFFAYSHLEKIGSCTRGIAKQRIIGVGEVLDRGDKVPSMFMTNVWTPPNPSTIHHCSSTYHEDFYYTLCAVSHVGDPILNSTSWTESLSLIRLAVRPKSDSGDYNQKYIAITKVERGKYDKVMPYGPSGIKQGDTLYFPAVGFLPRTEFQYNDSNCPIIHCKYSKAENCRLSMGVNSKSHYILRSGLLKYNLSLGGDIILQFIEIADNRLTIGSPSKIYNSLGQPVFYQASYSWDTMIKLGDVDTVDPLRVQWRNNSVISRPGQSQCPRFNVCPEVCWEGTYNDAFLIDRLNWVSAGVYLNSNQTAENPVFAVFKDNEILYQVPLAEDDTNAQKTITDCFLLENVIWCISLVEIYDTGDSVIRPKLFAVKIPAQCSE

[4] = target: full-length NiVB-RBP expressed on the surface of transfected cells (Nipah virus, strain Bangladesh, UniProt Q9IH62 182-602)
[5] = target: T3, full-length NiVM-RBP expressed on the surface of transfected cells (Nipah virus, strain Malaysia, UniProt Q9IH62 182-602)
T3 sequence: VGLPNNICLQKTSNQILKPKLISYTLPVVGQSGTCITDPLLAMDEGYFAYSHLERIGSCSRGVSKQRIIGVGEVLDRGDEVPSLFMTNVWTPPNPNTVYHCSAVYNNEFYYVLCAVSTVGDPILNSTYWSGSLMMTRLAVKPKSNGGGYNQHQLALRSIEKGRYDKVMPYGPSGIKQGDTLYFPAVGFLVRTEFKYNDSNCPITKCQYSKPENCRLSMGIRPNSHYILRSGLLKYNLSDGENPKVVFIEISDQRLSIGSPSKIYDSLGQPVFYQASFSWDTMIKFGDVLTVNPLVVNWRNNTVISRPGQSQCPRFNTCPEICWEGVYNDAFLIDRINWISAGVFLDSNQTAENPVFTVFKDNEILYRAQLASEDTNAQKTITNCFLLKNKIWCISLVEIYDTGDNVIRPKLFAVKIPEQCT

[6] = target: T4, NiVM-RBP head domain (residues 183-602), recombinant soluble (Nipah virus, strain Malaysia, UniProt Q9IH62 183-602); test: ELISA, RBP head domain coated on plate, hybridoma IgG
T4 sequence: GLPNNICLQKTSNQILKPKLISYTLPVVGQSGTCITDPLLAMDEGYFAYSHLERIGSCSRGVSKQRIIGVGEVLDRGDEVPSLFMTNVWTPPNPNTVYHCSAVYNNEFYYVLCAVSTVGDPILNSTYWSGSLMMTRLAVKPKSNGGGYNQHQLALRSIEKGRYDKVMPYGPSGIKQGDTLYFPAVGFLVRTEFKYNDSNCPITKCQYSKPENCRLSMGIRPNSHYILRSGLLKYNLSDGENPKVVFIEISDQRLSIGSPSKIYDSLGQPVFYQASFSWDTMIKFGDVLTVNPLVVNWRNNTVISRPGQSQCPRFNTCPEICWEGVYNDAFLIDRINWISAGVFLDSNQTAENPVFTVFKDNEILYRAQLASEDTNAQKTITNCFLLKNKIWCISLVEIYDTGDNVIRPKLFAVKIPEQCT

[7] = target: T5, NiVB-RBP head domain (residues 185-602), recombinant soluble (Nipah virus, strain Bangladesh, UniProt Q9IH62 185-602); test: as above
[8] = target: T6, HeV-RBP head domain (residues 185-604), recombinant soluble (Hendra virus, UniProt O89343 185-603); test: as above
T6 sequence: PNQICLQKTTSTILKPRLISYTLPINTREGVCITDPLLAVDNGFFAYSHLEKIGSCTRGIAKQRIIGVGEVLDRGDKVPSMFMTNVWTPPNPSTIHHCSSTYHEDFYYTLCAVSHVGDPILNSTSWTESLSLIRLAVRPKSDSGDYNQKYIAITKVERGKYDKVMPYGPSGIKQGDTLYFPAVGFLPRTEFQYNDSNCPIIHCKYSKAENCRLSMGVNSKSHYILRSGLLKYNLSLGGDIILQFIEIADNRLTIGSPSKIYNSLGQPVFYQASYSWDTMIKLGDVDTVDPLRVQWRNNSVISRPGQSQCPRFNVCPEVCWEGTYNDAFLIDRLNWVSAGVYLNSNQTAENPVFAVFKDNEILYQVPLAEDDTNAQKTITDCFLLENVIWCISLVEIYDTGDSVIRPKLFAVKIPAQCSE

[9] = target: T4, NiVM-RBP head domain (residues …)
[10] = target: T5, NiVB-RBP head domain (residues …)
[11] = target: T6, HeV-RBP head domain (residues 185-604), …

| Binder | IC50, plaque reduction neutralization of live virus [1] [µg/mL] | IC50, plaque reduction neutralization of live virus [2] [µg/mL] | EC50 [3] [µg/mL] | EC50 [4] [µg/mL] | EC50 [5] [µg/mL] | Area under the curve [6] | EC50 [6] [µg/mL] | Area under the curve [7] | EC50 [7] [µg/mL] | Area under the curve [8] | EC50 [8] [µg/mL] | Kd [9] [nM] | Kd [10] [nM] | Kd [11] [nM] |
| --- | --- | --- | --- | --- | --- | --- | --- | --- | --- | --- | --- | --- | --- | --- |
| B1 | 0.27 | 0.38 | 0.68 | 0.836 | 0.76 | 8 | 0.42 | 6.6 | 0.96 | 3.71 | 0.36 |  |  |  |
| B2 |  |  |  |  |  |  |  |  |  |  |  | 2.2 | 2.8 | 2.1 |
